The source of these data is PMC4650570 (Cell Research, 2014).

Assay [1] concerns the target GST-TcdB-C(1500-2366) (Clostridium difficile, UniProt P18177 1500-2366). Nature of the assay: pull-down.
Assay [2] deals with Clostridium difficile toxin B, His-tagged (TcdB-His) (Clostridium difficile, UniProt P18177 1-2366). Description: SPR.
Clostridium difficile toxin B, His-tagged (TcdB-His), sequence (P18177 whole entry): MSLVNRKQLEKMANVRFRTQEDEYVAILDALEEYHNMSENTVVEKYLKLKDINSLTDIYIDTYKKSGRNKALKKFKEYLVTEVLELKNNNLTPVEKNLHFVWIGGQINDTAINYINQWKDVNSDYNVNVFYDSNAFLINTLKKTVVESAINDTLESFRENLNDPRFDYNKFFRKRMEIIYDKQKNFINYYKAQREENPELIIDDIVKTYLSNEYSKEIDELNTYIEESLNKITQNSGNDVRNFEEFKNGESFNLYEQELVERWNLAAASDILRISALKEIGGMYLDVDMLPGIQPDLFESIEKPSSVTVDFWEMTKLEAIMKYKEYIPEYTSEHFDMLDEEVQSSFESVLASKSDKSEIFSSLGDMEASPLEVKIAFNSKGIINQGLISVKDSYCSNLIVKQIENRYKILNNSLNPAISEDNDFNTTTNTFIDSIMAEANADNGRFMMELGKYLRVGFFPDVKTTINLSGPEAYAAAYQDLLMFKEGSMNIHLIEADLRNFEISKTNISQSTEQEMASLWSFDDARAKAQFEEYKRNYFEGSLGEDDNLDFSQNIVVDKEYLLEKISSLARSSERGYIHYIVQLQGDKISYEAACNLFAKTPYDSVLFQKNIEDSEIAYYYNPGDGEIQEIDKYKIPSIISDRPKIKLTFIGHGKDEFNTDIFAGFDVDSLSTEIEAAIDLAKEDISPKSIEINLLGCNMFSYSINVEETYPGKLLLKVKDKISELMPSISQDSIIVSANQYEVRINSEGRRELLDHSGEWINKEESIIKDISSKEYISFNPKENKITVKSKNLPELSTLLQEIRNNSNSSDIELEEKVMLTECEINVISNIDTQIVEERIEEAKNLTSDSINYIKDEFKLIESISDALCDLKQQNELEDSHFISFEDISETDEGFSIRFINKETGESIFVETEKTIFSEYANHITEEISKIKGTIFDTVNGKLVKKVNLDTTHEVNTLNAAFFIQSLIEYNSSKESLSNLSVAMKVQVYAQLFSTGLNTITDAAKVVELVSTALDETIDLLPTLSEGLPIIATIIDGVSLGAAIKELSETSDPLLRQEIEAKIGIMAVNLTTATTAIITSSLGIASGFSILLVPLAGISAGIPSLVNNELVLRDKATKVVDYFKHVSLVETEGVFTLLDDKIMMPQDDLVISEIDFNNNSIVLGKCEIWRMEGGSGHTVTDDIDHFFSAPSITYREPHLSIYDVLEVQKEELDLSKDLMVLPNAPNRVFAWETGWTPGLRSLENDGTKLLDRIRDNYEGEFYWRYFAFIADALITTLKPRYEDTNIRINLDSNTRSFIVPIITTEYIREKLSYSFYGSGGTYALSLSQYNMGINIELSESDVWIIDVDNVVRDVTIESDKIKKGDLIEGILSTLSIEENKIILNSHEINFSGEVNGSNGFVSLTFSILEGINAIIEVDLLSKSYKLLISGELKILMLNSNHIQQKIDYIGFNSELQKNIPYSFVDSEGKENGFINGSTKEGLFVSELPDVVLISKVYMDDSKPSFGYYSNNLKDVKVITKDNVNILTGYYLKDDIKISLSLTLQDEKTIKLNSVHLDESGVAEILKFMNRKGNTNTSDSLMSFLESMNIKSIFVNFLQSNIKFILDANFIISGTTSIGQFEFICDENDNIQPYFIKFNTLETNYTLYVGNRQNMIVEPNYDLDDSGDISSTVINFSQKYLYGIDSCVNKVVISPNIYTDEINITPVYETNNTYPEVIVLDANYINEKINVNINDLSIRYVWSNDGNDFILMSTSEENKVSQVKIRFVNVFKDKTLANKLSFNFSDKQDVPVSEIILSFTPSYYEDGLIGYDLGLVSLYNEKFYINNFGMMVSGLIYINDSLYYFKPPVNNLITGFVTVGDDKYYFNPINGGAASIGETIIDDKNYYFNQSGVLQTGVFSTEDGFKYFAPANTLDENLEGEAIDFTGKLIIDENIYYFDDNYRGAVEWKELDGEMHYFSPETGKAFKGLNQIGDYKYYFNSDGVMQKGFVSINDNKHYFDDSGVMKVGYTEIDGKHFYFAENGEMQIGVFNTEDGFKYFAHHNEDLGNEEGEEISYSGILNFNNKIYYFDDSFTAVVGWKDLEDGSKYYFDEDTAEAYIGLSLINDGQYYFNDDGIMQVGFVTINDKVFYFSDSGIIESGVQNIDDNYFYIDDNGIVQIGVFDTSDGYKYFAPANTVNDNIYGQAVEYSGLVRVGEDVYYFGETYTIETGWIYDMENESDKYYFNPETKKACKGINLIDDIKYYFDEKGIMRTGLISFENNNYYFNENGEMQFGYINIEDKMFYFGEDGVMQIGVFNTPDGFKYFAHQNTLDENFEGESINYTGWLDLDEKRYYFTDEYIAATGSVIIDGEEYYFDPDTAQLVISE

GST-TcdB-C(1500-2366), sequence (P18177 1500-2366): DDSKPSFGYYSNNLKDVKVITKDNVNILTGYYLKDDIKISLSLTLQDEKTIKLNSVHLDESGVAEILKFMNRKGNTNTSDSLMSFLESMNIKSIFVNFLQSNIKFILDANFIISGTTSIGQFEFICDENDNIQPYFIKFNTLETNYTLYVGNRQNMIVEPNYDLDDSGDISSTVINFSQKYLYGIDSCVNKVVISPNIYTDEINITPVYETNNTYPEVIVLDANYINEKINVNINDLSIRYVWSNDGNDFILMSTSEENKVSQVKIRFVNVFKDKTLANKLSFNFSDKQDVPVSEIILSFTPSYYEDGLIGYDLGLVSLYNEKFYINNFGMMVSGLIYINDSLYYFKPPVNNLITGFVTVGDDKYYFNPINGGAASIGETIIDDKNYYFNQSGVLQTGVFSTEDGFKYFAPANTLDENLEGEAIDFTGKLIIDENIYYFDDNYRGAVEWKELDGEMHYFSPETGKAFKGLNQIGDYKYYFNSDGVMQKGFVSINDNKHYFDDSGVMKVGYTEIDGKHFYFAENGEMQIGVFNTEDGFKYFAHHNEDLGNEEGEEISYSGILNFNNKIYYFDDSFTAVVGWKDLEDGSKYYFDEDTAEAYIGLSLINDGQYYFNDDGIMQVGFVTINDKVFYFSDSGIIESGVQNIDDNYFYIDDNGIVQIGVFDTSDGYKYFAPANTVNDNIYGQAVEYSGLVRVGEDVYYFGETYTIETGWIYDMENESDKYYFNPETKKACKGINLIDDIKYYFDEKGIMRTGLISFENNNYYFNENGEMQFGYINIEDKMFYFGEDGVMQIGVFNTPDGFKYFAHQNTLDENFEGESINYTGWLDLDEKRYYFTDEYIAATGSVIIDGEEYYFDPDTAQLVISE

B1: CSPG4-N(30-640)-Fc (Fc fusion)
chain: ASFFGENHLEVPVATALTDIDLQLQFSTSQPEALLLLAAGPADHLLLQLYSGRLQVRLVLGQEELRLQTPAETLLSDSIPHTVVLTVVEGWATLSVDGFLNASSAVPGAPLEVPYGLFVGGTGTLGLPYLRGTSRPLRGCLHAATLNGRSLLRPLTPDVHEGCAEEFSASDDVALGFSGPHSLAAFPAWGTQDEGTLEFTLTTQSRQAPLAFQAGGRRGDFIYVDIFEGHLRAVVEKGQGTVLLHNSVPVADGQPHEVSVHINAHRLEISVDQYPTHTSNRGVLSYLEPRGSLLLGGLDAEASRHLQEHRLGLTPEATNASLLGCMEDLSVNGQRRGLREALLTRNMAAGCRLEEEEYEDDAYGHYEAFSTLAPEAWPAMELPEPCVPEPGLPPVFANFTQLLTISPLVVAEGGTAWLEWRHVQPTLDLMEAELRKSQVLFSVTRGARHGELELDIPGAQARKMFTLLDVVNRKARFIHDGSEDTSDQLVLEVSVTARVPMPSCLRRGQTYLLPIQVNPVNDPPHIIFPHGSLMVILEHTQKPLGPEVFQAYDPDSACEGLTFQVLGTSSGLPVERRDQPGEPATEFSCRELEAGSLVYVHRGGPAQDLTF
With B1, the binding result in assay [1] is given as “binds”.

B2: CSPG4-N(401-560)-Fc (Fc fusion)
chain: LAPEAWPAMELPEPCVPEPGLPPVFANFTQLLTISPLVVAEGGTAWLEWRHVQPTLDLMEAELRKSQVLFSVTRGARHGELELDIPGAQARKMFTLLDVVNRKARFIHDGSEDTSDQLVLEVSVTARVPMPSCLRRGQTYLLPIQVNPVNDPPHIIFPHG
One may read the Kd as the free concentration of one partner at which half of the binding sites on the other are occupied at equilibrium, for simple one-to-one binding. Read a low Kd as a tighter complex. Turning to B2, the Kd in assay [2] is 28.9 ± 0.7 nM.
